Experimental data: the supplement of paper PMC6757056
± gives the standard deviation of the averaged measurements.

B1: library; a variant is named by its letters at N, in order (parent)
chain: GCUGUCACCGAGAAACUGUGAAGUAUAUCUUAAACCUGGGCACUUAAAAGAUAUAUGGAGUUAGUAGUGCAACCUGCUCGGUCUGAUGAGUCCNNNNNNGGACGAAACAGC

What was measured:
[1] = variants of: B1; assay: normalized RNA/DNA level without ligand (relative to sTRSVctl = 100) (log10 (% of sTRSVctl)); HEK293T; ligand: cyclic di-GMP (c-di-GMP-II aptamer); higher = less ribozyme self-cleavage, higher mRNA level; conditions: reporter: mCherry (pCS4076), ligand present: no
Procedure, shortened: (§1)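 RNA level was computed as RNA reads over DNA reads divided by a spiked-in non-cleaving sequence or by the top sequences, then scaled and log-transformed. Scaling was ×100 with log10, the top group was 25 sequences, and the threshold was ≥100 DNA reads. The reads came from HEK293T cells transfected at 4 µg per 6-well well with ribozyme switch library plasmids (mCherry, or eGFP in some ligand experiments). Total RNA was extracted with EDTA 72 h after transfection, with any ligand added 1 h before it.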

[2] = variants of: B1; assay: normalized RNA/DNA level with ligand (relative to sTRSVctl = 100) (log10 (% of sTRSVctl)); HEK293T; ligand: cyclic di-GMP (c-di-GMP-II aptamer); ligand concentration (+) RNA-Seq: 1 mM; higher = less ribozyme self-cleavage, higher mRNA level; conditions: reporter: mCherry (pCS4076), ligand present: yes
Procedure, shortened: as §1

| Variant | normalized RNA/DNA level without ligand (log10) [1] | normalized RNA/DNA level with ligand (log10) [2] |
| --- | --- | --- |
| CAGUAG | 1.724 ± 0.013 | 1.83 ± 0.096 |
| CAGUAC | 1.6 ± 0.018 | 1.74 ± 0.14 |
| CAUACA | 1.38 ± 0.11 | 1.58 ± 0.1 |
| CAGGUU | 1.798 ± 0.0047 | 1.88 ± 0.053 |
| CAGGUC | 1.76 ± 0.021 | 1.84 ± 0.094 |
| CAGGUA | 1.57 ± 0.081 | 1.67 ± 0.11 |
| CAGGUG | 1.62 ± 0.056 | 1.76 ± 0.084 |
| AAUACC | 1.71 ± 0.031 | 1.86 ± 0.069 |
| AAUACA | 1.56 ± 0.017 | 1.74 ± 0.1 |
| UAUAAU | 1.66 ± 0.063 | 1.8 ± 0.099 |
| UAUAAG | 1.66 ± 0.03 | 1.82 ± 0.14 |
| UAUAAC | 1.697 ± 0.015 | 1.85 ± 0.12 |
| CACUUU | 1.51 ± 0.057 | 1.7 ± 0.17 |
| CACUUC | 1.71 ± 0.022 | 1.83 ± 0.16 |
| GACUCU | 1.704 ± 0.005 | 1.84 ± 0.12 |
| GACUCG | 1.78 ± 0.081 | 1.87 ± 0.074 |
| CAGUCG | 1.76 ± 0.067 | 1.9 ± 0.12 |
| CAGUCA | 1.41 ± 0.1 | 1.52 ± 0.13 |
| CAGUCU | 1.52 ± 0.048 | 1.68 ± 0.12 |
| UACUUC | 1.763 ± 0.0059 | 1.87 ± 0.12 |
| UACUUG | 1.734 ± 0.0022 | 1.89 ± 0.063 |
| UACUUA | 1.7 ± 0.055 | 1.84 ± 0.11 |
| GAGUGC | 1.785 ± 0.006 | 1.86 ± 0.13 |
| GAGUGU | 1.77 ± 0.049 | 1.89 ± 0.09 |

| Variant | normalized RNA/DNA level without ligand (log10) [1] | normalized RNA/DNA level with ligand (log10) [2] |
| --- | --- | --- |
| GAGUGG | 1.84 ± 0.043 | 1.9 ± 0.12 |
| GAGUGA | 1.71 ± 0.033 | 1.79 ± 0.14 |
| UAUACA | 1.711 ± 0.0027 | 1.85 ± 0.12 |
| CAGUGC | 1.71 ± 0.05 | 1.81 ± 0.11 |
| CAGUGG | 1.68 ± 0.022 | 1.86 ± 0.065 |
| CAGUGA | 1.52 ± 0.043 | 1.7 ± 0.12 |
| CAGUGU | 1.718 ± 0.0057 | 1.84 ± 0.12 |
| AAGGGC | 1.61 ± 0.027 | 1.75 ± 0.13 |
| UACUGG | 1.731 ± 0.015 | 1.85 ± 0.12 |
| UACUGA | 1.66 ± 0.044 | 1.82 ± 0.11 |
| UACUGU | 1.6108 ± 0.00033 | 1.79 ± 0.15 |
| UACUGC | 1.712 ± 0.0056 | 1.83 ± 0.13 |
| CACUCU | 1.6 ± 0.019 | 1.77 ± 0.12 |
| CACUCG | 1.82 ± 0.042 | 1.87 ± 0.11 |
| GAGCGA | 1.735 ± 0.0089 | 1.85 ± 0.085 |
| GAGCGG | 1.88 ± 0.079 | 1.96 ± 0.096 |
| UAGACG | 1.7073 ± 0.00046 | 1.87 ± 0.12 |
| UAGACA | 1.73 ± 0.058 | 1.85 ± 0.15 |
| CAGUUG | 1.76 ± 0.019 | 1.87 ± 0.11 |
| CAGGAG | 1.64 ± 0.091 | 1.79 ± 0.098 |
| CAGGAU | 1.64 ± 0.094 | 1.78 ± 0.068 |
| CAGGAC | 1.715 ± 0.017 | 1.81 ± 0.1 |
| AAGCAG | 1.79 ± 0.081 | 1.9 ± 0.11 |
| AAGCAU | 1.655 ± 0.0071 | 1.82 ± 0.1 |

| Variant | normalized RNA/DNA level without ligand (log10) [1] | normalized RNA/DNA level with ligand (log10) [2] |
| --- | --- | --- |
| GAGAAC | 1.65 ± 0.031 | 1.8 ± 0.09 |
| GAGAAU | 1.663 ± 0.011 | 1.76 ± 0.098 |
| GAGAAA | 1.6011 ± 0.00083 | 1.72 ± 0.1 |
| AAGUAC | 1.657 ± 0.007 | 1.8 ± 0.14 |
| AAGUAG | 1.68 ± 0.024 | 1.77 ± 0.12 |
| AAGUAA | 1.45 ± 0.12 | 1.63 ± 0.089 |
| AAGUAU | 1.62 ± 0.032 | 1.8 ± 0.095 |
| UAGAUC | 1.595 ± 0.014 | 1.82 ± 0.056 |
| UAGAUU | 1.6 ± 0.028 | 1.79 ± 0.067 |
| UAGAUA | 1.614 ± 0.012 | 1.78 ± 0.11 |
| UAGGGC | 1.64 ± 0.035 | 1.78 ± 0.1 |
| UAGGGG | 1.563 ± 0.0094 | 1.72 ± 0.079 |
| AAGGAC | 1.53 ± 0.1 | 1.73 ± 0.072 |
| AAGGAG | 1.54 ± 0.14 | 1.67 ± 0.053 |
| AAGGAU | 1.49 ± 0.097 | 1.7 ± 0.096 |
| AAGGUC | 1.61 ± 0.034 | 1.75 ± 0.077 |
| AAGUCA | 1.63 ± 0.06 | 1.77 ± 0.14 |
| AAGUCU | 1.68 ± 0.058 | 1.8 ± 0.12 |
| AAGUCG | 1.62 ± 0.031 | 1.79 ± 0.089 |
| AAGUCC | 1.76 ± 0.051 | 1.84 ± 0.085 |
| AAGAUC | 1.6 ± 0.084 | 1.74 ± 0.097 |
| AAGAUG | 1.49 ± 0.055 | 1.71 ± 0.075 |
| AAGAUU | 1.63 ± 0.043 | 1.8 ± 0.054 |
| UAGUAA | 1.652 ± 0.0068 | 1.8 ± 0.12 |

| Variant | normalized RNA/DNA level without ligand (log10) [1] | normalized RNA/DNA level with ligand (log10) [2] |
| --- | --- | --- |
| UAGUAG | 1.7 ± 0.036 | 1.84 ± 0.1 |
| UAGUAC | 1.68 ± 0.037 | 1.8 ± 0.12 |
| GACUUC | 1.74 ± 0.038 | 1.91 ± 0.1 |
| GAGGCA | 1.81 ± 0.039 | 1.86 ± 0.089 |
| GAGGCG | 1.817 ± 0.018 | 1.9 ± 0.14 |
| GAGGCU | 1.83 ± 0.046 | 1.87 ± 0.068 |
| GAGGCC | 1.7859 ± 0.0011 | 1.89 ± 0.048 |
| UAGCAG | 1.82 ± 0.032 | 1.85 ± 0.032 |
| UAGCAU | 1.653 ± 0.0034 | 1.8 ± 0.11 |
| UAGCAC | 1.708 ± 0.0035 | 1.83 ± 0.095 |
| UAGCAA | 1.716 ± 0.0099 | 1.84 ± 0.087 |
| AAGCUG | 1.64 ± 0.019 | 1.79 ± 0.076 |
| AAGCUC | 1.74 ± 0.012 | 1.89 ± 0.13 |
| AAGCUA | 1.56 ± 0.024 | 1.72 ± 0.12 |
| AAGCUU | 1.7 ± 0.022 | 1.84 ± 0.073 |
| AACUGU | 1.7 ± 0.023 | 1.85 ± 0.1 |
| AACUGC | 1.686 ± 0.0067 | 1.82 ± 0.089 |
| GAGCAU | 1.83 ± 0.037 | 1.91 ± 0.11 |
| GAGCAA | 1.76 ± 0.023 | 1.83 ± 0.12 |
| GAGCAC | 1.82 ± 0.053 | 1.87 ± 0.077 |
| GAGUAU | 1.79 ± 0.024 | 1.86 ± 0.099 |
| GAGUAC | 1.8 ± 0.059 | 1.87 ± 0.11 |
| AACUCU | 1.73 ± 0.06 | 1.88 ± 0.12 |
| AACUCG | 1.66 ± 0.047 | 1.82 ± 0.085 |

| Variant | normalized RNA/DNA level without ligand (log10) [1] | normalized RNA/DNA level with ligand (log10) [2] |
| --- | --- | --- |
| CAGCAU | 1.56 ± 0.1 | 1.72 ± 0.075 |
| CAGCAG | 1.79 ± 0.028 | 1.85 ± 0.12 |
| CAGCAC | 1.65 ± 0.067 | 1.79 ± 0.025 |
| AAGAAG | 1.46 ± 0.049 | 1.66 ± 0.093 |
| UAGUGC | 1.69 ± 0.024 | 1.82 ± 0.13 |
| UAGUGU | 1.62 ± 0.034 | 1.81 ± 0.13 |
| AAGUGC | 1.666 ± 0.0039 | 1.82 ± 0.14 |
| AAGUGU | 1.6 ± 0.034 | 1.76 ± 0.14 |
| AAGUGG | 1.68 ± 0.033 | 1.78 ± 0.12 |
| AAGUGA | 1.38 ± 0.19 | 1.5546 ± 0.00035 |
| AAGCGC | 1.669 ± 0.011 | 1.84 ± 0.13 |
| AAGCGG | 1.81 ± 0.035 | 1.88 ± 0.069 |
| AAGCGU | 1.56 ± 0.021 | 1.73 ± 0.11 |
| CAGCGA | 1.49 ± 0.1 | 1.7 ± 0.055 |
| CAGCGC | 1.731 ± 0.013 | 1.87 ± 0.15 |
| CAGCGU | 1.701 ± 0.011 | 1.84 ± 0.088 |
| CAGCGG | 1.78 ± 0.032 | 1.9 ± 0.14 |
| UAGGAG | 1.59 ± 0.05 | 1.76 ± 0.13 |
| UAGGAU | 1.58 ± 0.049 | 1.76 ± 0.078 |
| UAGGAC | 1.528 ± 0.015 | 1.73 ± 0.082 |
